From article PMC6590076

Target: 14-3-3β (UniProt P31946)
Test: in vitro pull-down, immobilized phosphoprotein

For “FOXO3A (from UniProt O43524) FOXO3A with pSer413 (SepOTSλ)”, the “binding against the reference” value (reference: FOXO3A with Ser413 (supD tRNA), sites S413) was “stronger”.

With “FOXO3A (from UniProt O43524) FOXO3A with pSer253 (SepOTSλ)” the “binding against the reference” value (reference: FOXO3A with Ser253 (supD tRNA), sites S253) was “stronger”.
